Test results taken from EP1147413B1.

Biological target: mouse GDF-8 pro-domain without tag, lacking the signal peptide, released from WT-GDF-8-F in QM-7 cells (mouse) (UniProt O08689)
Assay: cell-based or functional assay

UniProt O08689, sequence (O08689 20-267 limits assumed): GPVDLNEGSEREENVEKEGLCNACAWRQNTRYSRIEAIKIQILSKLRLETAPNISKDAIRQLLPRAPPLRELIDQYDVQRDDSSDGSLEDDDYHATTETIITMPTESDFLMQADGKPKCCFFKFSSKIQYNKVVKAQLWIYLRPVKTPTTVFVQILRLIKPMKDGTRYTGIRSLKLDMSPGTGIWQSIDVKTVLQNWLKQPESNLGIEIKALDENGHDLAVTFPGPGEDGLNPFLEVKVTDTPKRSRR

Substance: m-calpain (enzyme)
- luciferase activity of affinity-purified GDF-8 complexes after 1U/ml m-calpain for 2 hours at 37° C, against the untreated control: 2.5 fold
